The record followed here is patent publication US20200289663A1.

One may read the Kd as the constant that tells how readily two partners part at equilibrium.

The target of experiment [1] is human recombinant protein HER2-ECD with his-tag (human) (UniProt P04626). Description: ELISA on coated HER2-ECD.
Experiment [2] shares this target. In words: ELISA on coated HER2-ECD, average of three independent assays. (In general: An ELISA detects its analyte on a solid surface through an enzyme-linked reagent.)

RC48-mc-vc-pAB-MMAE, sequence (VH): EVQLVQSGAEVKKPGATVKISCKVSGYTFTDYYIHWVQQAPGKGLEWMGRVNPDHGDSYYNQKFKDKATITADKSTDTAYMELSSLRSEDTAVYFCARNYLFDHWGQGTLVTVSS
RC48-mc-vc-pAB-MMAE, sequence (VL): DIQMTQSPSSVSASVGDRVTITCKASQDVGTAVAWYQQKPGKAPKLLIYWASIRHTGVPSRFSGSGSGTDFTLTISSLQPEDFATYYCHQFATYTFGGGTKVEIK
RC48-VC-MMAF, sequence (VH): as the sequence (VH) above
RC48-VC-MMAF, sequence (VL): as the sequence (VL) above
humanized anti-HER2 monoclonal antibody RC48, sequence (VH): as the sequence (VH) above
humanized anti-HER2 monoclonal antibody RC48, sequence (VL): as the sequence (VL) above

As to RC48-VC-MMAF, in experiment [1], the Binding affinity was determined as 3.35 ng/mL and the Mole equivalent was 13.5. RC48-mc-vc-pAB-MMAE: in experiment [1], the Binding affinity turned out to be 2.24 ng/mL and the Mole equivalent turned out to be 15.2. With “human-mouse chimeric anti-HER2 antibody cRC48”, the Kd in experiment [2] worked out at 0.077 nM. With “humanized anti-HER2 monoclonal antibody RC48”, the equilibrium dissociation constant (Kd) in experiment [2] was found to be 0.044 nM.
